According to US20110091994A1, “Methods for Screening Compounds for Treating and/or Preventing an Hepatitis C Virus Infection” (priority 2008, published 2011):

B1: BCAR1 (protein, UniProt P56945 1-870, looked up)
Breast cancer anti-estrogen …: MNHLNVLAKALYDNVAESPDELSFRKGDIMTVLEQDTQGLDGWWLCSLHGRQGIVPGNRLKILVGMYDKKPAGPGPGPPATPAQPQPGLHAPAPPASQYTPMLPNTYQPQPDSVYLVPTPSKAQQGLYQVPGPSPQFQSPPAKQTSTFSKQTPHHPFPSPATDLYQVPPGPGGPAQDIYQVPPSAGMGHDIYQVPPSMDTRSWEGTKPPAKVVVPTRVGQGYVYEAAQPEQDEYDIPRHLLAPGPQDIYDVPPVRGLLPSQYGQEVYDTPPMAVKGPNGRDPLLEVYDVPPSVEKGLPPSNHHAVYDVPPSVSKDVPDGPLLREETYDVPPAFAKAKPFDPARTPLVLAAPPPDSPPAEDVYDVPPPAPDLYDVPPGLRRPGPGTLYDVPRERVLPPEVADGGVVDSGVYAVPPPAEREAPAEGKRLSASSTGSTRSSQSASSLEVAGPGREPLELEVAVEALARLQQGVSATVAHLLDLAGSAGATGSWRSPSEPQEPLVQDLQAAVAAVQSAVHELLEFARSAVGNAAHTSDRALHAKLSRQLQKMEDVHQTLVAHGQALDAGRGGSGATLEDLDRLVACSRAVPEDAKQLASFLHGNASLLFRRTKATAPGPEGGGTLHPNPTDKTSSIQSRPLPSPPKFTSQDSPDGQYENSEGGWMEDYDYVHLQGKEEFEKTQKELLEKGSITRQGKSQLELQQLKQFERLEQEVSRPIDHDLANWTPAQPLAPGRTGGLGPSDRQLLLFYLEQCEANLTTLTNAVDAFFTAVATNQPPKIFVAHSKFVILSAHKLVFIGDTLSRQAKAADVRSQVTHYSNLLCDLLRGIVATTKAAALQYPSPSAAQDMVERVKELGHSTQQFRRVLGQLAAA
B2: ARS2 (protein, UniProt Q9BXP5 2-876, looked up)
Serrate RNA effector molecule …: GDSDDEYDRRRRDKFRRERSDYDRSRERDERRRGDDWNDREWDRGRERRSRGEYRDYDRNRRERFSPPRHELSPPQKRMRRDWDEHSSDPYHSGYEMPYAGGGGGPTYGPPQPWGHPDVHIMQHHVLPIQARLGSIAEIDLGVPPPVMKTFKEFLLSLDDSVDETEAVKRYNDYKLDFRRQQMQDFFLAHKDEEWFRSKYHPDEVGKRRQEARGALQNRLRVFLSLMETGWFDNLLLDIDKADAIVKMLDAAVIKMEGGTENDLRILEQEEEEEQAGKPGEPSKKEEGRAGAGLGDGERKTNDKDEKKEDGKQAENDSSNDDKTKKSEGDGDKEEKKEDSEKEAKKSSKKRNRKHSGDDSFDEGSVSESESESESGQAEEEKEEAEEALKEKEKPKEEEWEKPKDAAGLECKPRPLHKTCSLFMRNIAPNISRAEIISLCKRYPGFMRVALSEPQPERRFFRRGWVTFDRSVNIKEICWNLQNIRLRECELSPGVNRDLTRRVRNINGITQHKQIVRNDIKLAAKLIHTLDDRTQLWASEPGTPPLPTSLPSQNPILKNITDYLIEEVSAEEEELLGSSGGAPPEEPPKEGNPAEINVERDEKLIKVLDKLLLYLRIVHSLDYYNTCEYPNEDEMPNRCGIIHVRGPMPPNRISHGEVLEWQKTFEEKLTPLLSVRESLSEEEAQKMGRKDPEQEVEKFVTSNTQELGKDKWLCPLSGKKFKGPEFVRKHIFNKHAEKIEEVKKEVAFFNNFLTDAKRPALPEIKPAQPPGPAQILPPGLTPGLPYPHQTPQGLMPYGQPRPPILGYGAGAVRPAVPTGGPPYPHAPYGAGRGNYDAFRGQGGYPGKPRNRMVRGDPRAIVEYRDLDAPDDVDFF
B3: ARHGEF6 (protein, UniProt Q15052 1-776, looked up)
Rho guanine nucleotide …: MNPEEQIVTWLISLGVLESPKKTICDPEEFLKSSLKNGVVLCKLINRLMPGSVEKFCLDPQTEADCINNINDFLKGCATLQVEIFDPDDLYSGVNFSKVLSTLLAVNKATEDQLSERPCGRSSSLSAANTSQTNPQGAVSSTVSGLQRQSKTVEMTENGSHQLIVKARFNFKQTNEDELSVCKGDIIYVTRVEEGGWWEGTLNGRTGWFPSNYVREIKSSERPLSPKAVKGFETAPLTKNYYTVVLQNILDTEKEYAKELQSLLVTYLRPLQSNNNLSTVEVTSLLGNFEEVCTFQQTLCQALEECSKFPENQHKVGGCLLSLMPHFKSMYLAYCANHPSAVNVLTQHSDELEQFMENQGASSPGILILTTNLSKPFMRLEKYVTLLQELERHMEDTHPDHQDILKAIVAFKTLMGQCQDLRKRKQLELQILSEPIQAWEGEDIKNLGNVIFMSQVMVQYGACEEKEERYLMLFSNVLIMLSASPRMSGFIYQGKIPIAGTVVTRLDEIEGNDCTFEITGNTVERIVVHCNNNQDFQEWLEQLNRLIRGPASCSSLSKTSSSSCSAHSSFSSTGQPRGPLEPPQIIKPWSLSCLRPAPPLRPSAALGYKERMSYILKESSKSPKTMKKFLHKRKTERKPSEEEYVIRKSTAALEEDAQILKVIEAYCTSANFQQGHGSSTRKDSIPQVLLPEEEKLIIEETRSNGQTIMEEKSLVDTVYALKDEVRELKQENKRMKQCLEEELKSRRDLEKLVRRLLKQTDECIRGESSSKTSILP
B4: AEBP1 (protein, UniProt Q8IUX7 26-1158, looked up)
Adipocyte enhancer-binding …: QTVLTDDEIEEFLEGFLSELEPEPREDDVEAPPPPEPTPRVRKAQAGGKPGKRPGTAAEVPPEKTKDKGKKGKKDKGPKVPKESLEGSPRPPKKGKEKPPKATKKPKEKPPKATKKPKEKPPKATKKPKEKPPKATKKPPSGKRPPILAPSETLEWPLPPPPSPGPEELPQEGGAPLSNNWQNPGEETHVEAREHQPEPEEETEQPTLDYNDQIEREDYEDFEYIRRQKQPRPPPSRRRRPERVWPEPPEEKAPAPAPEERIEPPVKPLLPPLPPDYGDGYVIPNYDDMDYYFGPPPPQKPDAERQTDEEKEELKKPKKEDSSPKEETDKWAVEKGKDHKEPRKGEELEEEWTPTEKVKCPPIGMESHRIEDNQIRASSMLRHGLGAQRGRLNMQTGATEDDYYDGAWCAEDDARTQWIEVDTRRTTRFTGVITQGRDSSIHDDFVTTFFVGFSNDSQTWVMYTNGYEEMTFHGNVDKDTPVLSELPEPVVARFIRIYPLTWNGSLCMRLEVLGCSVAPVYSYYAQNEVVATDDLDFRHHSYKDMRQLMKVVNEECPTITRTYSLGKSSRGLKIYAMEISDNPGEHELGEPEFRYTAGIHGNEVLGRELLLLLMQYLCREYRDGNPRVRSLVQDTRIHLVPSLNPDGYEVAAQMGSEFGNWALGLWTEEGFDIFEDFPDLNSVLWGAEERKWVPYRVPNNNLPIPERYLSPDATVSTEVRAIIAWMEKNPFVLGANLNGGERLVSYPYDMARTPTQEQLLAAAMAAARGEDEDEVSEAQETPDHAIFRWLAISFASAHLTLTEPYRGGCQAQDYTGGMGIVNGAKWNPRTGTINDFSYLHTNCLELSFYLGCDKFPHESELPREWENNKEALLTFMEQVHRGIKGVVTDEQGIPIANATISVSGINHGVKTASGGDYWRILNPGEYRVTAHAEGYTPSAKTCNVDYDIGATQCNFILARSNWKRIREIMAMNGNRPIPHIDPSRPMTPQQRRLQQRRLQHRLRLRAQMRLRRLNATTTLGPHTVPPTLPPAPATTLSTTIEPWGLIPPTTAGWEESETETYTEVVTEFGTEVEPEFGTKVEPEFETQLEPEFETQLEPEFEEEEEEEKEEEIATGQAFPFTTVETYTVNFGDF
B5: ARFIP2 (protein, UniProt P53365 1-341, looked up)
Arfaptin-2: MTDGILGKAATMEIPIHGNGEARQLPEDDGLEQDLQQVMVSGPNLNETSIVSGGYGGSGDGLIPTGSGRHPSHSTTPSGPGDEVARGIAGEKFDIVKKWGINTYKCTKQLLSERFGRGSRTVDLELELQIELLRETKRKYESVLQLGRALTAHLYSLLQTQHALGDAFADLSQKSPELQEEFGYNAETQKLLCKNGETLLGAVNFFVSSINTLVTKTMEDTLMTVKQYEAARLEYDAYRTDLEELSLGPRDAGTRGRLESAQATFQAHRDKYEKLRGDVAIKLKFLEENKIKVMHKQLLLFHNAVSAYFAGNQKQLEQTLQQFNIKLRPPGAEKPSWLEEQ
B6: ANKRD28 (protein, UniProt O15084 1-1053, looked up)
Serine/threonine-protein …: MAFLKLRDQPSLVQAIFNGDPDEVRALIFKKEDVNFQDNEKRTPLHAAAYLGDAEIIELLILSGARVNAKDSKWLTPLHRAVASCSEEAVQVLLKHSADVNARDKNWQTPLHIAAANKAVKCAEALVPLLSNVNVSDRAGRTALHHAAFSGHGEMVKLLLSRGANINAFDKKDRRAIHWAAYMGHIEVVKLLVSHGAEVTCKDKKSYTPLHAAASSGMISVVKYLLDLGVDMNEPNAYGNTPLHVACYNGQDVVVNELIDCGAIVNQKNEKGFTPLHFAAASTHGALCLELLVGNGADVNMKSKDGKTPLHMTALHGRFSRSQTIIQSGAVIDCEDKNGNTPLHIAARYGHELLINTLITSGADTAKRGIHGMFPLHLAALSGFSDCCRKLLSSGFDIDTPDDFGRTCLHAAAAGGNLECLNLLLNTGADFNKKDKFGRSPLHYAAANCNYQCLFALVGSGASVNDLDERGCTPLHYAATSDTDGKCLEYLLRNDANPGIRDKQGYNAVHYSAAYGHRLCLQLIASETPLDVLMETSGTDMLSDSDNRATISPLHLAAYHGHHQALEVLVQSLLDLDVRNSSGRTPLDLAAFKGHVECVDVLINQGASILVKDYILKRTPIHAAATNGHSECLRLLIGNAEPQNAVDIQDGNGQTPLMLSVLNGHTDCVYSLLNKGANVDAKDKWGRTALHRGAVTGHEECVDALLQHGAKCLLRDSRGRTPIHLSAACGHIGVLGALLQSAASMDANPATADNHGYTALHWACYNGHETCVELLLEQEVFQKTEGNAFSPLHCAVINDNEGAAEMLIDTLGASIVNATDSKGRTPLHAAAFTDHVECLQLLLSHNAQVNSVDSTGKTPLMMAAENGQTNTVEMLVSSASAELTLQDNSKNTALHLACSKGHETSALLILEKITDRNLINATNAALQTPLHVAARNGLTMVVQELLGKGASVLAVDENGYTPALACAPNKDVADCLALILATMMPVSSSSPLSSLTFNAINRYTNTSKTVSFEALPIMRNEPSSYCSFNNIGGEQEYLYTDVDELNDSDSETY

The molecules below were run on HCV ORFs (Gal4-DB fusions) (assay: not given). Settings: human protein listed by gene symbol; the value names the HCV protein it interacts with.
Type: binding, HCV genotype 1b, isolate con1
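Throughout, for IMAP Y2H IMAP1 (number of IST): yeast two-hybrid screens using HCV genotype 1b proteins fused to Gal4-DB as baits against prey cDNA libraries from human spleen and foetal brain, IMAP1 via transformation and IMAP2 via mating.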
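Throughout, for Interaction with viral protein: yeast two-hybrid screens using HCV genotype 1b proteins fused to Gal4-DB as baits against prey cDNA libraries from human spleen and foetal brain, IMAP1 via transformation and IMAP2 via mating.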
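Throughout, for Y2H matrices: yeast two-hybrid pairwise tests of interactions first found in Y2H screens of HCV bait proteins against human cDNA libraries.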

Molecule	Interaction with viral protein
B1	CORE
B2	NS3
B3	NS3
B4	NS3
B5	NS3
B6	NS3

These molecules were tested against T1, HCV ORFs (Gal4-DB fusions) (Hepatitis C virus genotype 1b, UniProt Q9WMX2) (assay: not given). Settings: HCV protein CORE as bait; human protein as prey.
T1 construct: expressed in transfected cells; host or cells: Saccharomyces cerevisiae MAV203 (IMAP1) / AH109 (IMAP2)
Type: binding, HCV genotype 1b, isolate con1

Molecule	IMAP Y2H IMAP1 (number of IST)
B1	1

Same assay, conditions: HCV protein NS3 as bait; human protein as prey

Molecule	IMAP Y2H IMAP1 (number of IST)
B2	4
B3	1
B4	2
B5	1
B6	1

These molecules were tested against T2, HCV proteins (Hepatitis C virus genotype 1b, UniProt Q9WMX2) (assay: Validation by Y2H pairwise matrices). Settings: validation of interaction with HCV protein CORE.
T2 construct: expressed in transfected cells
Type: binding

Molecule	Y2H matrices
B1	+

Same assay, conditions: validation of interaction with HCV protein NS3

Molecule	Y2H matrices
B2	+
B3	+
B4	+
B5	+
B6	+
